Data reported in patent US20250361268A1, “NOVEL ANTI-INFLAMMATORY PEPTIDE AND USE THEREOF” (NOVACELL TECHNOLOGY INC., priority 2022, published 2025).

T1: FPR1 (UniProt P21462 1-350, limits assumed)
T1 sequence (looked up): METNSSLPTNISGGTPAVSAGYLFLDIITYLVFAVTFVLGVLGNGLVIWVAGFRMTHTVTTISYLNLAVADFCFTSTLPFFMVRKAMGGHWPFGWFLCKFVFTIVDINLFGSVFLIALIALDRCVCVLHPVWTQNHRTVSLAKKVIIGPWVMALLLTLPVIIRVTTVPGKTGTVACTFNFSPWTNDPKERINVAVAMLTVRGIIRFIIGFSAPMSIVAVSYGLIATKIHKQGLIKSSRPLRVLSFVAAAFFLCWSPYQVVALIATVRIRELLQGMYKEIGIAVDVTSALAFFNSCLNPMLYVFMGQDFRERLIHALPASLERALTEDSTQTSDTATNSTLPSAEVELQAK


Biological target: T1, FPR1
Test: cell-based or functional assay

Row | EC50 for [Ca2+] [µM] | Binder
1 | > 10 | MKYKPM (HELM PEPTIDE1{[CCCCCCCC(=O)[*:2]].M.K.Y.K.P.[dM].[am]}$$$$V2.0; SMILES CCCCCCCC(=O)N[C@@H](CCSC)C(=O)N[C@@H](CCCCN)C(=O)N[C@@H](Cc1ccc(O)cc1)C(=O)N[C@@H](CCCCN)C(=O)N1CCC[C@H]1C(=O)N[C@H](CCSC)C(N)=O) [peptide of SEQ ID NO 73]
2 | > 10 | MRYYYM (HELM PEPTIDE1{[ac].M.R.Y.Y.Y.[dM].[am]}$$$$V2.0; SMILES CSCC[C@H](NC(C)=O)C(=O)N[C@@H](CCCNC(=N)N)C(=O)N[C@@H](Cc1ccc(O)cc1)C(=O)N[C@@H](Cc1ccc(O)cc1)C(=O)N[C@@H](Cc1ccc(O)cc1)C(=O)N[C@H](CCSC)C(N)=O) [peptide of SEQ ID NO 126]
3 | > 10 | MKYKPM (HELM PEPTIDE1{[ac].M.K.Y.K.P.[dM].[am]}$$$$V2.0; SMILES CSCC[C@H](NC(C)=O)C(=O)N[C@@H](CCCCN)C(=O)N[C@@H](Cc1ccc(O)cc1)C(=O)N[C@@H](CCCCN)C(=O)N1CCC[C@H]1C(=O)N[C@H](CCSC)C(N)=O) [peptide of SEQ ID NO 71]
4 | > 10 | KMKYKVM (HELM PEPTIDE1{K.M.K.Y.K.V.[dM].[am]}$$$$V2.0; N-terminus assumed; SMILES CSCC[C@H](NC(=O)[C@@H](N)CCCCN)C(=O)N[C@@H](CCCCN)C(=O)N[C@@H](Cc1ccc(O)cc1)C(=O)N[C@@H](CCCCN)C(=O)N[C@H](C(=O)N[C@H](CCSC)C(N)=O)C(C)C) [peptide of SEQ ID NO 9]
5 | > 10 | MKYWYM (HELM PEPTIDE1{[CCCC(=O)[*:2]].M.K.Y.W.Y.[dM].[am]}$$$$V2.0; SMILES CCCC(=O)N[C@@H](CCSC)C(=O)N[C@@H](CCCCN)C(=O)N[C@@H](Cc1ccc(O)cc1)C(=O)N[C@@H](Cc1c[nH]c2ccccc12)C(=O)N[C@@H](Cc1ccc(O)cc1)C(=O)N[C@H](CCSC)C(N)=O) [peptide of SEQ ID NO 91]
6 | > 10 | RMRYKVM (HELM PEPTIDE1{[CCCCCCCC(=O)[*:2]].R.M.R.Y.K.V.[dM].[am]}$$$$V2.0; SMILES CCCCCCCC(=O)N[C@@H](CCCNC(=N)N)C(=O)N[C@@H](CCSC)C(=O)N[C@@H](CCCNC(=N)N)C(=O)N[C@@H](Cc1ccc(O)cc1)C(=O)N[C@@H](CCCCN)C(=O)N[C@H](C(=O)N[C@H](CCSC)C(N)=O)C(C)C) [peptide of SEQ ID NO 8]
7 | > 10 | IKFWYM (HELM PEPTIDE1{I.K.F.W.Y.[dM].[am]}$$$$V2.0; N-terminus assumed; SMILES CC[C@H](C)[C@H](N)C(=O)N[C@@H](CCCCN)C(=O)N[C@@H](Cc1ccccc1)C(=O)N[C@@H](Cc1c[nH]c2ccccc12)C(=O)N[C@@H](Cc1ccc(O)cc1)C(=O)N[C@H](CCSC)C(N)=O) [peptide of SEQ ID NO 128]
8 | > 10 | IKFKYM (HELM PEPTIDE1{I.K.F.K.Y.[dM].[am]}$$$$V2.0; N-terminus assumed; SMILES CC[C@H](C)[C@H](N)C(=O)N[C@@H](CCCCN)C(=O)N[C@@H](Cc1ccccc1)C(=O)N[C@@H](CCCCN)C(=O)N[C@@H](Cc1ccc(O)cc1)C(=O)N[C@H](CCSC)C(N)=O) [peptide of SEQ ID NO 131]
9 | > 10 | IKYKPM (HELM PEPTIDE1{[CCCCCCCC(=O)[*:2]].I.K.Y.K.P.[dM].[am]}$$$$V2.0; SMILES CCCCCCCC(=O)N[C@H](C(=O)N[C@@H](CCCCN)C(=O)N[C@@H](Cc1ccc(O)cc1)C(=O)N[C@@H](CCCCN)C(=O)N1CCC[C@H]1C(=O)N[C@H](CCSC)C(N)=O)[C@@H](C)CC) [peptide of SEQ ID NO 145]
10 | > 10 | IKFKVM (HELM PEPTIDE1{I.K.F.K.V.[dM].[am]}$$$$V2.0; N-terminus assumed; SMILES CC[C@H](C)[C@H](N)C(=O)N[C@@H](CCCCN)C(=O)N[C@@H](Cc1ccccc1)C(=O)N[C@@H](CCCCN)C(=O)N[C@H](C(=O)N[C@H](CCSC)C(N)=O)C(C)C) [peptide of SEQ ID NO 132]
11 | > 10 | KMKYKVM (HELM PEPTIDE1{[CCCCCCCC(=O)[*:2]].K.M.K.Y.K.V.[dM].[am]}$$$$V2.0; SMILES CCCCCCCC(=O)N[C@@H](CCCCN)C(=O)N[C@@H](CCSC)C(=O)N[C@@H](CCCCN)C(=O)N[C@@H](Cc1ccc(O)cc1)C(=O)N[C@@H](CCCCN)C(=O)N[C@H](C(=O)N[C@H](CCSC)C(N)=O)C(C)C) [peptide of SEQ ID NO 12]
12 | > 10 | RMRYWYM (HELM PEPTIDE1{[CCCCCCCC(=O)[*:2]].R.M.R.Y.W.Y.[dM].[am]}$$$$V2.0; SMILES CCCCCCCC(=O)N[C@@H](CCCNC(=N)N)C(=O)N[C@@H](CCSC)C(=O)N[C@@H](CCCNC(=N)N)C(=O)N[C@@H](Cc1ccc(O)cc1)C(=O)N[C@@H](Cc1c[nH]c2ccccc12)C(=O)N[C@@H](Cc1ccc(O)cc1)C(=O)N[C@H](CCSC)C(N)=O) [peptide of SEQ ID NO 84]
13 | > 10 | KMKYKVM (HELM PEPTIDE1{[ac].K.M.K.Y.K.V.[dM].[am]}$$$$V2.0; SMILES CSCC[C@H](NC(=O)[C@H](CCCCN)NC(C)=O)C(=O)N[C@@H](CCCCN)C(=O)N[C@@H](Cc1ccc(O)cc1)C(=O)N[C@@H](CCCCN)C(=O)N[C@H](C(=O)N[C@H](CCSC)C(N)=O)C(C)C) [peptide of SEQ ID NO 10]
14 | > 10 | WRYWYM (HELM PEPTIDE1{W.R.Y.W.Y.[dM].[am]}$$$$V2.0; N-terminus assumed; SMILES CSCC[C@@H](NC(=O)[C@H](Cc1ccc(O)cc1)NC(=O)[C@H](Cc1c[nH]c2ccccc12)NC(=O)[C@H](Cc1ccc(O)cc1)NC(=O)[C@H](CCCNC(=N)N)NC(=O)[C@@H](N)Cc1c[nH]c2ccccc12)C(N)=O) [peptide of SEQ ID NO 79]
15 | > 10 | KMKYKPM (HELM PEPTIDE1{[CCCCCCCC(=O)[*:2]].K.M.K.Y.K.P.[dM].[am]}$$$$V2.0; SMILES CCCCCCCC(=O)N[C@@H](CCCCN)C(=O)N[C@@H](CCSC)C(=O)N[C@@H](CCCCN)C(=O)N[C@@H](Cc1ccc(O)cc1)C(=O)N[C@@H](CCCCN)C(=O)N1CCC[C@H]1C(=O)N[C@H](CCSC)C(N)=O) [peptide of SEQ ID NO 69]
16 | > 10 | MKYKPM (HELM PEPTIDE1{[CCCC(=O)[*:2]].M.K.Y.K.P.[dM].[am]}$$$$V2.0; SMILES CCCC(=O)N[C@@H](CCSC)C(=O)N[C@@H](CCCCN)C(=O)N[C@@H](Cc1ccc(O)cc1)C(=O)N[C@@H](CCCCN)C(=O)N1CCC[C@H]1C(=O)N[C@H](CCSC)C(N)=O) [peptide of SEQ ID NO 72]
17 | > 10 | MKYWYM (HELM PEPTIDE1{[ac].M.K.Y.W.Y.[dM].[am]}$$$$V2.0; SMILES CSCC[C@H](NC(C)=O)C(=O)N[C@@H](CCCCN)C(=O)N[C@@H](Cc1ccc(O)cc1)C(=O)N[C@@H](Cc1c[nH]c2ccccc12)C(=O)N[C@@H](Cc1ccc(O)cc1)C(=O)N[C@H](CCSC)C(N)=O) [peptide of SEQ ID NO 90]
18 | > 10 | RWRYWYM (HELM PEPTIDE1{R.W.R.Y.W.Y.[dM].[am]}$$$$V2.0; N-terminus assumed; SMILES CSCC[C@@H](NC(=O)[C@H](Cc1ccc(O)cc1)NC(=O)[C@H](Cc1c[nH]c2ccccc12)NC(=O)[C@H](Cc1ccc(O)cc1)NC(=O)[C@H](CCCNC(=N)N)NC(=O)[C@H](Cc1c[nH]c2ccccc12)NC(=O)[C@@H](N)CCCNC(=N)N)C(N)=O) [peptide of SEQ ID NO 77]
19 | > 10 | MRYWYM (HELM PEPTIDE1{[CCCCCCCC(=O)[*:2]].M.R.Y.W.Y.[dM].[am]}$$$$V2.0; SMILES CCCCCCCC(=O)N[C@@H](CCSC)C(=O)N[C@@H](CCCNC(=N)N)C(=O)N[C@@H](Cc1ccc(O)cc1)C(=O)N[C@@H](Cc1c[nH]c2ccccc12)C(=O)N[C@@H](Cc1ccc(O)cc1)C(=O)N[C@H](CCSC)C(N)=O) [peptide of SEQ ID NO 88]
20 | > 10 | IKKWMM (HELM PEPTIDE1{I.K.K.W.M.[dM].[am]}$$$$V2.0; N-terminus assumed; SMILES CC[C@H](C)[C@H](N)C(=O)N[C@@H](CCCCN)C(=O)N[C@@H](CCCCN)C(=O)N[C@@H](Cc1c[nH]c2ccccc12)C(=O)N[C@@H](CCSC)C(=O)N[C@H](CCSC)C(N)=O) [peptide of SEQ ID NO 130]
21 | > 10 | IKFWMM (HELM PEPTIDE1{I.K.F.W.M.[dM].[am]}$$$$V2.0; N-terminus assumed; SMILES CC[C@H](C)[C@H](N)C(=O)N[C@@H](CCCCN)C(=O)N[C@@H](Cc1ccccc1)C(=O)N[C@@H](Cc1c[nH]c2ccccc12)C(=O)N[C@@H](CCSC)C(=O)N[C@H](CCSC)C(N)=O) [peptide of SEQ ID NO 129]
